The values below come from article PMC3807213 (Journal of molecular biology, 2012).

Sequences and labels used below:
B1: EcoP15I restriction (Res) subunit (enzyme, UniProt Q5ZND2 1-970, looked up)
chain: MSKGFTLEKNLPHQKAGVDAVMNVFVSATPHLTDNVAVRLLANPELKLSEQQYYNNIKNVQAFNGIAHSKDNHNAKSNIIDVSMETGTGKTYTYIKTIFDLNKSFGINKFIIIVPTLSIKAGTVNFLKSDALKEHFRDDYKRELRTYVVESQKNAGKNTKSYMPQAIHDFVEASNFNKKYIHVLVINSGMINSKSLTDTYDTGLLDNQFNTPVDALRAVKPFIIIDEPHRFPTGKKTWENIEKFNAQYIIRYGATFSEGYKNLVYRLTAVDAFNDDLVKGIDAYIEDIVGDGNANLKFVKSDGKEATFELNENNNKKSFKLAKGESLSKTHSAIHDLTLDALNKSTAVLSNGIELKIGSSINPYSYDQTLADNMMRKAVKEHFKLEKELLTQRPRIKPLTLFFIDDIEGYRDGNDISGSLKTKFEEYVLAEANELLKTEQDAFYKNYLEKTVTNISSVHGGYFSKDNSDKDDKIEQEINEILHDKELLLSLDNPRRFIFSKWTLREGWDNPNVFQICKLRSSGSTTSKLQEVGRGLRLPVNEYMCRVKDRNFTLKYYVDFTEKDFVDSLVKEVNESSFKERVPSKFTQELKEQIMAQYPELSSRALMNELFNDEIIDDNDNFKDSDAYSRLKSKYPAAFPIGVKPGKIKKATDGKRRTKMRVGKFSELKELWDLINQKAVIEYKINSESEFLSIFKSFMLEETERFTKSGVHTRIDKIYIHNDMAMSKSIVSDDDDFAKLNTMSYREFLDNLSQTIFVKHGTLHKVFCDIKDTINITEYLNIQTIRKIKSGFSKYLLNNSFNKFSLGYNLISGSIHPTKFTNADGNPLGEVLSSDLGVLQDNAKAPLDTYLFEEVFYDSELERRNITDREIQSVVVFSKIPKNSIKIPVAGGYTYSPDFAYVVKTAEGDYLNFIIETKNVDSKDSLRLEEKRKIEHAQALFNQISQSVKVEFRTQFANDDIYQLIKSALP
B2: EcoP15I modification (Mod) subunit (enzyme, UniProt P12364 1-644, looked up)
chain: MKKETIFSEVETANSKQLAVLKANFPQCFDKNGAFIQEKLLEIIRASEVELSKESYSLNWLGKSYARLLANLPPKTLLAEDKTHNQQEENKNSQHLLIKGDNLEVLKHMVNAYAEKVKMIYIDPPYNTGKDGFVYNDDRKFTPEQLSELAGIDLDEAKRILEFTTKGSSSHSAWLTFIYPRLYIARELMREDGTIFISIDHNEFSQLKLVCDEIFGEQNHVGDLVWKNATDNNPSNIAVEHEYIIVYTKNKEQLISEWKSNISDVKNLLVNIGEEFASKYTGNELQEKYTQWFREHRSELWPLDRYKYIDKDGIYTGSQSVHNPGKEGYRYDIIHPKTKKPCKQPLMGYRFPLDTMDRLLSEEKIIFGDDENKIIELKVYAKDYKQKLSSVIHLDGRVATNELKELFPEMTQPFTNAKTIKLVEDLISFACDGEGIVLDFFAGSGTTAHTVFNLNNKNKTSYQFITVQLDEPTKDKSDAMKHGYNTIFDLTKERLIRASKKNRDQGFKVYQLMPDFRAKDESELTLSNHTFFDDVVLTPEQYDTLLTTWCLYDGSLLTTPIEDVDLGGYKAHLCDGRLYLIAPNFTSEALKALLQKVDSDKDFAPNKVVFYGSNFESAKQMELNEALKSYANKKSIELDLVVRN

Data set [1] concerns the target B2. The data set can be described thus: AUC + other: dynamic light scattering.
The data set “AUC” deals with the molecule itself. The data set can be described thus: AUC.

The stoichiometry N is a count of units in the complex or per binding partner. For B1, in data set [1], the “stoichiometry N” value is 1 Res per Mod (2:2).
For B2, the “stoichiometry N” value in “AUC” stood at 2.
